Assay results taken from the domain aggregation screens of Martell et al. (2025).

Assay: soluble fraction after stress (log2 fold change); higher = more stays soluble; pooled small domains, quantitative proteomics
Settings: stress: pH 4
How it was run: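 How much of each domain stays soluble after acid stress, expressed as a fold change, is used to gauge aggregation propensity. Pooled custom libraries of small domains underwent pH 4 stress before high-throughput quantitative proteomics. A higher log2 value means more of the domain stayed soluble.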

**Q.** With “HMVDERMVTYINSLDKGNTPFLNELEKEALANYVPIIRREMQSFLKVLLQIKAPLRILEVGTAVGFSTILM” as the sequence, how does the “soluble fraction (log2)” value read?
**A.** Its value is -0.354.

**Q.** For “HMVDGAHKQQAAVQALTPALKVLAAAPEGKKGQAIQALRAVLKQHGRWLDDATAQQVHEQLLAAGDAQGWQ”, which “soluble fraction (log2)” value is on record?
**A.** The value was 0.331.

**Q.** Which “soluble fraction (log2)” value does the source give for “HMVDIGQSIRVELIREGKDSHQAVGYLRDGSMVVVNHGRKLIGSTVEVEITSIVPSSAGKVIFAEYLE” here?
**A.** The value was -1.05.

**Q.** Which “soluble fraction (log2)” value does the source give for “HMVDIQTGQKVRIHTSQFAGKIGNITALNVKSAELPNGIRTATASILMQSNENVMLPVSNFDIIE” here?
**A.** Its value is -0.044.

**Q.** Which “soluble fraction (log2)” value does the source give for “HMVDIVLDILKIVAEKQPGNQFSQSILMQYQERGGLSKKQLEGLYGKAKRIPEIPQNKLATLEAIILR” here?
**A.** The value was -0.428.

**Q.** For “HMVDKNDLTAIDGIGPFLEKKLNDVGVFTYADIAGWDAAKIEEITQQISFFEGRIEKDDWVGQAQKLIDDQ”, which “soluble fraction (log2)” value is on record?
**A.** The value was -0.704.

**Q.** For “HMVDKSYIHNQQVASDTWTVQHNLGKYPAVSVADTGNNEVYGDVRHINENTVELKFSHPFSGVAFF”, which “soluble fraction (log2)” value is on record?
**A.** Its value is -0.0737.

**Q.** Which “soluble fraction (log2)” value does the source give for “HMVDKTMYDRYAVDDYVRVIDGPLVGTEGRIIELDRETGNVKIEAVFFGRVTTADINFALIEKVD” here?
**A.** The value was -1.33.

**Q.** With “HMVDLDIENYELEDILNLFRLQYNFVEADLKRAYRMALKLHPDKSGLDGEYFRFYMKAYKIVENIFNFRNR” as the sequence, how does the “soluble fraction (log2)” value read?
**A.** The value was -1.38.

**Q.** Which “soluble fraction (log2)” value does the source give for “HMVDSVIGSVGRVTVDIDNVEALGQVKLGGMEWSARSTSGDPIPAGTEVRVDRVEGVKVFVTPV” here?
**A.** Its value is -0.203.

**Q.** For “HMVDVEMLTTVSDHIEAKLLQGILENHGIPSYSVDEESGEYMRVYMGYSIFGEKIYVRASDLLAAQGYL”, which “soluble fraction (log2)” value is on record?
**A.** Its value is -1.93.

**Q.** Which “soluble fraction (log2)” value does the source give for “HMVDWTFPVLVKDVVMMGRYGHMGFLRIPGKKDFESVDNALAKVGMVEYAKQQIGELSGGQR” here?
**A.** The value was -0.0255.

**Q.** For “HMVDYSMEDSVWNNKKEHVNEWFDANPEHEGRRVIVDGLFAIGDAQPDLRKRHWSSISVVFADLDNSPIG”, which “soluble fraction (log2)” value is on record?
**A.** The value was -1.01.

**Q.** With “HMVEDPADNQKAADAVIKKISEIGEVTESSENLIKEARASYDALTDNQKELVTNYDVLVQAEAQLENIKD” as the sequence, how does the “soluble fraction (log2)” value read?
**A.** Its value is -0.703.

**Q.** With “HMVEEVDYGTFMRMIEEKNIGKVEVRAGEIVFTDKDEKQIYKTGAMEDATLTQRLYESGAEFSKDV” as the sequence, how does the “soluble fraction (log2)” value read?
**A.** The value was -0.507.

**Q.** Which “soluble fraction (log2)” value does the source give for “HMVEGVSLVEIYVDENSKYNGKLLSEIPKKENTLVIMIQRGEQVIIPHGNIRLESGDMLVVSKTEI” here?
**A.** Its value is -1.38.

**Q.** For “HMVEKNALSEEIEGYVNKYGKDRSSLMPVLQAIQRKHSYINDFAQQEVARLLDIHPVEVFSVISFYSFLH”, which “soluble fraction (log2)” value is on record?
**A.** The value was -1.

**Q.** For “HMVEKRLFPQISDAGKRLDLFLAGALAISRTMVVKIIKDGGVLVNGKAAKASYRLAGDEELLVSYEEP”, which “soluble fraction (log2)” value is on record?
**A.** Its value is -0.243.

**Q.** Which “soluble fraction (log2)” value does the source give for “HMVEMPEVGVKVRIEVESHNGSTNFEGIVLHPASKGHLTLKLINGYNASYLIEEIRNLEIIDSS” here?
**A.** The value was -0.763.

**Q.** Which “soluble fraction (log2)” value does the source give for “HMVENATPEEREALNDIAMEAMGMVKDGKPTSAREFVQSQNLDNDQKILLWSLLDAPTRSALKTAEK” here?
**A.** The value was 0.299.

**Q.** For “HMVEPIKAPMPGMVLKILVEPGQQIEKGQGVLILEAMKMENVLKSSAAATVKSIKVSEKSAVEKGAILVEL”, which “soluble fraction (log2)” value is on record?
**A.** The value was -0.261.

**Q.** Which “soluble fraction (log2)” value does the source give for “HMVEQVEISILPGEYSDTISQKLLDAGLIDDKAAFSKYINDTNVDNLIQPGTFTVPKGASYEEVAKILT” here?
**A.** The value was -1.35.

**Q.** With “HMVERRVRFTVAPGNAGLRLDLFLTAREIGLSRTQVGRAVDEGQIQVNGRPGRAGRKLKTGDVVAIVLPA” as the sequence, how does the “soluble fraction (log2)” value read?
**A.** The value was -0.0969.

**Q.** For “HMVESLTDRELQILSLAAKGYTNKAIAVQLGISDRTVQNHLANTFQKLNAESRTEAVMRAVSLGLISA”, which “soluble fraction (log2)” value is on record?
**A.** Its value is -0.422.

**Q.** Which “soluble fraction (log2)” value does the source give for “HMVETVQVVGAGQDIMPGSRINYSSLHYITVPRSYFHEDMFAKNNLVVGRIARAYVAKGEPLLAASLMPK” here?
**A.** Its value is 0.17.

**Q.** With “HMVEVPYSEFLKELDAGNVKDVYVSNGESQIQFTKKDQKQWNLSYKTGPIPGDDLVKRLQNADVENFT” as the sequence, how does the “soluble fraction (log2)” value read?
**A.** Its value is -0.282.

**Q.** Which “soluble fraction (log2)” value does the source give for “HMVEVTTDEITRPGAMVSGSVTFSDGVKAIWLIDEYGRPGLEPETPGYQPSESDLSEFEKHLRALLQ” here?
**A.** Its value is -0.648.

**Q.** Which “soluble fraction (log2)” value does the source give for “HMVEVVDAEKLEERLSKVFSAAVLLEIYNENPAHGKEYAYLFTARKNAVEEMIENGQMKRETWEAK” here?
**A.** The value was -1.91.

**Q.** For “HMVFSKEELLFNSDSLLSLYPNDNKLLETILSEKIDHAVKNNDMSMYKEILVIDPKNPLANYHLLM”, which “soluble fraction (log2)” value is on record?
**A.** The value was 0.17.

**Q.** With “HMVFTEEERAEYREKMLDAGFDLLKQYGMTHMSVAKITEAAGIGVSTFYNFFSSKEEYVYEVLQYRRRK” as the sequence, how does the “soluble fraction (log2)” value read?
**A.** Its value is -0.392.

**Q.** Which “soluble fraction (log2)” value does the source give for “HMVGIVQKTFEPTGIAAEELMKTLKSDKSLDFGNVQILATPKSSTSRQVVVVSGRANDVDRVMMVLSNLDS” here?
**A.** Its value is 0.015.

**Q.** Which “soluble fraction (log2)” value does the source give for “HMVGKIVVPHLEGKPAEMARDILARDGFKSVHEEVLPSAEFGAGRVVRTEPHAGTNVAKTDPVTIFVSVGL” here?
**A.** Its value is -0.0761.

**Q.** With “HMVGLTDLQRNVLVQIARGKSRQLISRTLKVTPAEISAALKVAQRRYRVASSTEVIVQALYDKTLSFHEIM” as the sequence, how does the “soluble fraction (log2)” value read?
**A.** Its value is 0.105.

**Q.** For “HMVIIPNILNKYKGLAFRQLEQVGLKIGDTIYEPNIQRDAVLRMQINGRSVQPGDQVMRFSVVDLVIG”, which “soluble fraction (log2)” value is on record?
**A.** Its value is -1.14.

**Q.** For “HMVINKRELNVLSIYSRGSEKRAIILFPTGQTKLVKVGDTLNGGRVAAIGTTEIRYIKGGNNLVLKIPQ”, which “soluble fraction (log2)” value is on record?
**A.** Its value is at least 0.43.

**Q.** With “HMVINVNEIIRRIKELKTFKTDRQVADFLGVSKATVSNWMARNSIDFPLLINKLDGVDLTWLLTGRGTPE” as the sequence, how does the “soluble fraction (log2)” value read?
**A.** Its value is -0.121.

**Q.** With “HMVIPATPTARRAKIAGLLADRSVRSQGELLTLLADAGIEVTQATLSRDLEALGAVKVRDGRGLVYAVPG” as the sequence, how does the “soluble fraction (log2)” value read?
**A.** Its value is 0.365.

**Q.** Which “soluble fraction (log2)” value does the source give for “HMVIQRQIPPLVTRMLDGLEQFIQLDMPFDLDTRLGNIEAVRANMDRSDVTSAEAYRQVLELYSIELQ” here?
**A.** Its value is -0.0525.

**Q.** With “HMVISLREINLIGVYGRPNARRALVRLSNGRYVRVEVGSDLDGGKVTAIGDEALNFVKRGRTYAIQLPA” as the sequence, how does the “soluble fraction (log2)” value read?
**A.** Its value is -0.324.

**Q.** With “HMVITPESVKEQVLAIISKSPAQGFNYKQISKRLNINDPSERKMVSDILRELSESGTIEEINKGKYRAKV” as the sequence, how does the “soluble fraction (log2)” value read?
**A.** The value was -0.055.

**Q.** With “HMVKDYIQVTVNKEPVILKGKKDYIFIDIFNYIEFDLTIPKGSLYLLLNGKNAGYHDKLLDGDVIELGW” as the sequence, how does the “soluble fraction (log2)” value read?
**A.** The value was -1.63.

**Q.** With “HMVKLDDLTGQDKASAEAAISNLGLKYSEQQEYSDEIEEGKVTRTDPGAGSTSLKAGDTVTVYISRGPE” as the sequence, how does the “soluble fraction (log2)” value read?
**A.** Its value is -0.348.

**Q.** For “HMVKLSATVKELLDFVIAKKTVTSSNVSKHFDISAQNASGRLKKLHATGLVLGQKEVAESGGLEFVYRS”, which “soluble fraction (log2)” value is on record?
**A.** The value was -0.208.

**Q.** Which “soluble fraction (log2)” value does the source give for “HMVKLSDGIVEHIKSLIMAGRLKPGDKLPPEREFAATLGVSRTALREAVRTLSLMGLLDARQGEGTFVSG” here?
**A.** The value was 0.313.

**Q.** With “HMVKPQANTIYKEYIKYRANLQNKNEFLSFSEYAKQKHNLEQMSEIMVDANLKEEMLETLKEMS” as the sequence, how does the “soluble fraction (log2)” value read?
**A.** Its value is 0.0548.

**Q.** For “HMVKSDLVGHRFILVEDVTPKLTPKYHYSGINWKLITTDNLVAGTRVEVIQVDVGKFHIKAIK”, which “soluble fraction (log2)” value is on record?
**A.** The value was -0.82.

**Q.** Which “soluble fraction (log2)” value does the source give for “HMVKSIDEIYNEAVKSLANEDYDAAKKLFNYLINNFSDPDKFPLSLFWLAEIEFSSSNFDASKNYYMQ” here?
**A.** The value was -0.225.

**Q.** With “HMVKSSVTEVISMINALPVTVKPEDKADIISARMAYDTLTEDEKALVTNYEILTAAETRFNELIATT” as the sequence, how does the “soluble fraction (log2)” value read?
**A.** The value was -0.101.

**Q.** With “HMVKTIINGEEKDFDAQDFQTFGDFLKKVIPEGQILKSLKINSKDVPIAFIDELKSATVDENITIEMELA” as the sequence, how does the “soluble fraction (log2)” value read?
**A.** Its value is 0.315.

**Q.** Which “soluble fraction (log2)” value does the source give for “HMVLAEPLSERELDILRLLAAGDSNKEIAAVLYITEGTVKNHVTNILGKLDARDRTQAALRARELGL” here?
**A.** The value was -0.373.

**Q.** Which “soluble fraction (log2)” value does the source give for “HMVLGDQTFQSASAPKVFFGGDAAYGPKNIITAVAHGHDAAVSIDRFLHGEDVSKRPGPQVNLVS” here?
**A.** Its value is 0.207.

**Q.** Which “soluble fraction (log2)” value does the source give for “HMVLRPDDVEDSLWREWVSHRKAKRAAVTEGVLKTFRQEATKASFTLADAMRKSIDRGWTGFEAEWVARET” here?
**A.** Its value is -0.325.

**Q.** For “HMVLSPAQVRRALMVSGLFTEARVARQLGVPMDLKQILRIILRNTPPQSAMARELESAIDEIESRNAMRD”, which “soluble fraction (log2)” value is on record?
**A.** Its value is -0.844.

**Q.** With “HMVLSTRERMSNILATLKGGHFVNFSDLFTPEEGRLGVVVTFLAMLELIKESLLDIVQHEVLGPIHVKARV” as the sequence, how does the “soluble fraction (log2)” value read?
**A.** Its value is 0.0323.

**Q.** With “HMVLTGTIKKYNNERGFGFISTSNFGDVFFHIKDFQKGEQPIPGREVYFEVVKKENKKRAIHVYYSD” as the sequence, how does the “soluble fraction (log2)” value read?
**A.** The value was -0.243.
